Measured values from IntAct's records for PubMed 20462497.

B1: Interleukin-10 receptor subunit beta (Homo sapiens), Q08334 (parent)
chain: MAWSLGSWLGGCLLVSALGMVPPPENVRMNSVNFKNILQWESPAFAKGNLTFTAQYLSYRIFQDKCMNTTLTECDFSSLSKYGDHTLRVRAEFADEHSDWVNITFCPVDDTIIGPPGMQVEVLADSLHMRFLAPKIENEYETWTMKNVYNSWTYNVQYWKNGTDEKFQITPQYDFEVLRNLEPWTTYCVQVRGFLPDRNKAGEWSEPVCEQTTHDETVPSWMVAVILMASVFMVCLALLGCFALLWCVYKKTKYAFSPRNSLPQHLKEFLGHPHHNTLLFFSFPLSDENDVFDKLSVIAEDSESGKQNPGDSCSLGTPPGQGPQS
partner: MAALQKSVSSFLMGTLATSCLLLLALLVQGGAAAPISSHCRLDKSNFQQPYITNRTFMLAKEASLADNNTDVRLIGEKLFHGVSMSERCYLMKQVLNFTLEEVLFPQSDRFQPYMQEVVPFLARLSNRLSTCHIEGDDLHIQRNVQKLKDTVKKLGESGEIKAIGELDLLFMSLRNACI
B2: Interleukin-10 receptor subunit beta (Homo sapiens), Q08334 (parent)
chain: B1 chain

Variants of: B1
Conditions: with il22_human IL22, Q9GZX6

Row | Variant | effect of a mutation on the interaction
1 | MAWSLGSWLGGCLLVSALGMVPPPENVRMNSVNFKNILQWESPAFAKGNLTFTAQYLSYRIFQDKCMNTTLTECDFSSLSKAGDHTLRVRAEFADEHSDWVNITFCPVDDTIIGPPGMQVEVLADSLHMRFLAPKIENEYETWTMKNVYNSWTYNVQYWKNGTDEKFQITPQYDFEVLRNLEPWTTYCVQVRGFLPDRNKAGEWSEPVCEQTTHDETVPSWMVAVILMASVFMVCLALLGCFALLWCVYKKTKYAFSPRNSLPQHLKEFLGHPHHNTLLFFSFPLSDENDVFDKLSVIAEDSESGKQNPGDSCSLGTPPGQGPQS [Y82A] | decreasing interaction

Variants of: B2
Conditions: with il10_human IL10, P22301
il10_human IL10, P22301, sequence (P22301 whole entry): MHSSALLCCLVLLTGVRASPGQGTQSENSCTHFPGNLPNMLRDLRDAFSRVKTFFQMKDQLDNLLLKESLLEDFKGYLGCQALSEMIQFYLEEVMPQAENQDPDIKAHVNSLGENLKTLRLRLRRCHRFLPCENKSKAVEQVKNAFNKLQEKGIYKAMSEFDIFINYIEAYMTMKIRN

Row | Variant | effect of a mutation on the interaction
2 | MAWSLGSWLGGCLLVSALGMVPPPENVRMNSVNFKNILQWESPAFAKGNLTFTAQYLSYRIFQDKCMNTTLTECDFSSLSKAGDHTLRVRAEFADEHSDWVNITFCPVDDTIIGPPGMQVEVLADSLHMRFLAPKIENEYETWTMKNVYNSWTYNVQYWKNGTDEKFQITPQYDFEVLRNLEPWTTYCVQVRGFLPDRNKAGEWSEPVCEQTTHDETVPSWMVAVILMASVFMVCLALLGCFALLWCVYKKTKYAFSPRNSLPQHLKEFLGHPHHNTLLFFSFPLSDENDVFDKLSVIAEDSESGKQNPGDSCSLGTPPGQGPQS [Y82A] | decreasing interaction
